For one substance, stoichiometry N results are on record in paper PMC4190115.

Usually stoichiometry N stands for a count of units in the complex or per binding partner.

The target of the assay is His-tagged N-terminal domain (1-165 aa) of matrix protein 1 (M1) of influenza A virus A/WSN/33 (H1N1) (Influenza A virus A/WSN/33 (H1N1)) (UniProt P05777). The assay can be described thus: crystal structure.

The substance “His-tagged N-terminal domain (1-165 aa) of matrix protein 1 (M1) of influenza A virus A/WSN/33 (H1N1) (from UniProt P05777 1-165) (domain or fragment)” showed a stoichiometry N of 2.
